Measurements as given in US20140274782A1, “AFFINITY REAGENTS AND METHODS FOR DETECTION, PURIFICATION, AND PROTEOMIC ANALYSIS OF METHYLATED PROTEINS” (The Board of Trustees of the Leland Stanford Junior …, priority 2013, published 2014).

T1: G9a and GLP (Homo sapiens, UniProt Q96KQ7+Q9H9B1)
T1 sequence (Q96KQ7 2-1210 limits assumed): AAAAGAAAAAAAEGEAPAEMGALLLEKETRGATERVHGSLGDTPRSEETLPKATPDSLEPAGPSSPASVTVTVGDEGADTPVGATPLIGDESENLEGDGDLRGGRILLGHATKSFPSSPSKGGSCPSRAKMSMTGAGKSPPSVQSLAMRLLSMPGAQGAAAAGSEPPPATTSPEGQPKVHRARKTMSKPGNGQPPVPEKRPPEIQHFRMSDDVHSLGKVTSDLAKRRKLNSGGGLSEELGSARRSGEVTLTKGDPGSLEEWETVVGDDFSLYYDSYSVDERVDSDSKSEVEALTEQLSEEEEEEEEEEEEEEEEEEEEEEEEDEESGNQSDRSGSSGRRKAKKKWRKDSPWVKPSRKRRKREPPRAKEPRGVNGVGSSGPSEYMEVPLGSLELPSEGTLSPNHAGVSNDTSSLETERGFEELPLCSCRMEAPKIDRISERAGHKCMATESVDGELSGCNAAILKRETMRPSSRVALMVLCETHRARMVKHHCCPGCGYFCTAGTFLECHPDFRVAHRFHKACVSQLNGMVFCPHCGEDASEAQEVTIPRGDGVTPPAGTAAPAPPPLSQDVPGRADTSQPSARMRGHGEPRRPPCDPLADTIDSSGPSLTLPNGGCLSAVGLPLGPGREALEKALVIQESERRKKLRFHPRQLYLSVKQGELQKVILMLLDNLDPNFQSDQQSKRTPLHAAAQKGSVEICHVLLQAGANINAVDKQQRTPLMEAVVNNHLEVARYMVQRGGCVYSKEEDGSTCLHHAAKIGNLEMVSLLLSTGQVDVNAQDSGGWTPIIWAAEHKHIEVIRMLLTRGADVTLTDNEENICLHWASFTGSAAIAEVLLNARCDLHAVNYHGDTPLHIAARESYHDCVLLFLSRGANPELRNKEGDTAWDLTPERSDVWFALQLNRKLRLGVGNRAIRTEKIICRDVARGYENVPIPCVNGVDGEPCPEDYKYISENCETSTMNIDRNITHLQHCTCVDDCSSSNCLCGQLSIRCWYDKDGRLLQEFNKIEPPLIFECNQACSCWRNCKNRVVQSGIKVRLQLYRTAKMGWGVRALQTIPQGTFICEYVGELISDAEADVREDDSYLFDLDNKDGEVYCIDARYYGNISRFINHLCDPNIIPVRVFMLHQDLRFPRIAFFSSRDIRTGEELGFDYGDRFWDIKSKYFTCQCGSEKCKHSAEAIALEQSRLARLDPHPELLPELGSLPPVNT
T1 sequence (Q9H9B1 2-1298 limits assumed): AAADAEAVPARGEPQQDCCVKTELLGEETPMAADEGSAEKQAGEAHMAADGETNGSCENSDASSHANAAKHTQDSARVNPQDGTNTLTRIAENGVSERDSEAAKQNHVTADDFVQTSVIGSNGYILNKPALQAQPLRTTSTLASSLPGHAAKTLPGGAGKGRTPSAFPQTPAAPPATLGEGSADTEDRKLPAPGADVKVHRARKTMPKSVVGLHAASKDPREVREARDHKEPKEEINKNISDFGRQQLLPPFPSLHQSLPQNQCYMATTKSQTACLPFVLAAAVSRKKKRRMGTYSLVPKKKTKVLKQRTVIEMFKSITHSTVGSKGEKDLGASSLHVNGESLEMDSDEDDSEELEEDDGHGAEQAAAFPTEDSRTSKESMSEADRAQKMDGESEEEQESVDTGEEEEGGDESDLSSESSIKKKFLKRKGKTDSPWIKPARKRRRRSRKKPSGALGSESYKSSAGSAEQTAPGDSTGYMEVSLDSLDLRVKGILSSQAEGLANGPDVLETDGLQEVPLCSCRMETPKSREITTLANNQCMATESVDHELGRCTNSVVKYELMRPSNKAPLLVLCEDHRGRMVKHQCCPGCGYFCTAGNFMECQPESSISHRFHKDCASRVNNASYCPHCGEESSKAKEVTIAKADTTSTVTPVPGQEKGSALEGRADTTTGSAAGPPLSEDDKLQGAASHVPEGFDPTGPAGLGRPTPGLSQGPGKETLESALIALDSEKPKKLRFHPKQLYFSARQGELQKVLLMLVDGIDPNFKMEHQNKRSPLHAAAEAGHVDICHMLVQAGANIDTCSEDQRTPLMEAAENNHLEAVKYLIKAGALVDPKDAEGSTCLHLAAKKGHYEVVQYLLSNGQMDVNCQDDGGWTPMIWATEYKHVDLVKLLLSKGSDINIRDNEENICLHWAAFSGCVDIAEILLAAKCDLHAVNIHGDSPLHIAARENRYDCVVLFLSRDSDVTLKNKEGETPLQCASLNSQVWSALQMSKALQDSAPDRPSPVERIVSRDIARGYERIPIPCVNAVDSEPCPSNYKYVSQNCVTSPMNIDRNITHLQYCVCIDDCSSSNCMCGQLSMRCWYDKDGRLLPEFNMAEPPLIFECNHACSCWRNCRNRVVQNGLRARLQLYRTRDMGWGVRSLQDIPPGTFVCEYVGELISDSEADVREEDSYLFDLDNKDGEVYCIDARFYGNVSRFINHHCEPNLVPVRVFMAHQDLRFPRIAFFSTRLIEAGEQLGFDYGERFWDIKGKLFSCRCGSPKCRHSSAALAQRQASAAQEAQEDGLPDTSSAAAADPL

B1: CGGBP1 (protein, UniProt Q9UFW8 1-167, looked up)
CGG triplet repeat-binding …: MERFVVTAPPARNRSKTALYVTPLDRVTEFGGELHEDGGKLFCTSCNVVLNHVRKSAISDHLKSKTHTKRKAEFEEQNVRKKQRPLTASLQCNSTAQTEKVSVIQDFVKMCLEANIPLEKADHPAVRAFLSRHVKNGGSIPKSDQLRRAYLPDGYENENQLLNSQDC
B2: THYN1 (protein, UniProt Q9P016 1-225, looked up)
Thymocyte nuclear protein 1: MSRPRKRLAGTSGSDKGLSGKRTKTENSGEALAKVEDSNPQKTSATKNCLKNLSSHWLMKSEPESRLEKGVDVKFSIEDLKAQPKQTTCWDGVRNYQARNFLRAMKLGEEAFFYHSNCKEPGIAGLMKIVKEAYPDHTQFEKNNPHYDPSSKEDNPKWSMVDVQFVRMMKRFIPLAELKSYHQAHKATGGPLKNMVLFTRQRLSIQPLTQEEFDFVLSLEEKEPS
B3: PRMT3 (protein, UniProt O60678 2-531, looked up)
Protein arginine …: CSLASGATGGRGAVENEEDLPELSDSGDEAAWEDEDDADLPHGKQQTPCLFCNRLFTSAEETFSHCKSEHQFNIDSMVHKHGLEFYGYIKLINFIRLKNPTVEYMNSIYNPVPWEKEEYLKPVLEDDLLLQFDVEDLYEPVSVPFSYPNGLSENTSVVEKLKHMEARALSAEAALARAREDLQKMKQFAQDFVMHTDVRTCSSSTSVIADLQEDEDGVYFSSYGHYGIHEEMLKDKIRTESYRDFIYQNPHIFKDKVVLDVGCGTGILSMFAAKAGAKKVLGVDQSEILYQAMDIIRLNKLEDTITLIKGKIEEVHLPVEKVDVIISEWMGYFLLFESMLDSVLYAKNKYLAKGGSVYPDICTISLVAVSDVNKHADRIAFWDDVYGFKMSCMKKAVIPEAVVEVLDPKTLISEPCGIKHIDCHTTSISDLEFSSDFTLKITRTSMCTAIAGYFDIYFEKNCHNRVVFSTGPQSTKTHWKQTVFLLEKPFSVKAGEALKGKVTVHKNKKDPRSLTVTLTLNNSTQTYGLQ
B4: GAPDHS (protein, UniProt O14556 1-408, looked up)
Glyceraldehyde-3-phosphate …: MSKRDIVLTNVTVVQLLRQPCPVTRAPPPPEPKAEVEPQPQPEPTPVREEIKPPPPPLPPHPATPPPKMVSVARELTVGINGFGRIGRLVLRACMEKGVKVVAVNDPFIDPEYMVYMFKYDSTHGRYKGSVEFRNGQLVVDNHEISVYQCKEPKQIPWRAVGSPYVVESTGVYLSIQAASDHISAGAQRVVISAPSPDAPMFVMGVNENDYNPGSMNIVSNASCTTNCLAPLAKVIHERFGIVEGLMTTVHSYTATQKTVDGPSRKAWRDGRGAHQNIIPASTGAAKAVTKVIPELKGKLTGMAFRVPTPDVSVVDLTCRLAQPAPYSAIKEAVKAAAKGPMAGILAYTEDEVVSTDFLGDTHSSIFDAKAGIALNDNFVKLISWYDNEYGYSHRVVDLLRYMFSRDK
B5: MCM5 (protein, UniProt P33992 2-734, looked up)
DNA replication licensing …: SGFDDPGIFYSDSFGGDAQADEGQARKSQLQRRFKEFLRQYRVGTDRTGFTFKYRDELKRHYNLGEYWIEVEMEDLASFDEDLADYLYKQPAEHLQLLEEAAKEVADEVTRPRPSGEEVLQDIQVMLKSDASPSSIRSLKSDMMSHLVKIPGIIIAASAVRAKATRISIQCRSCRNTLTNIAMRPGLEGYALPRKCNTDQAGRPKCPLDPYFIMPDKCKCVDFQTLKLQELPDAVPHGEMPRHMQLYCDRYLCDKVVPGNRVTIMGIYSIKKFGLTTSRGRDRVGVGIRSSYIRVLGIQVDTDGSGRSFAGAVSPQEEEEFRRLAALPNVYEVISKSIAPSIFGGTDMKKAIACLLFGGSRKRLPDGLTRRGDINLLMLGDPGTAKSQLLKFVEKCSPIGVYTSGKGSSAAGLTASVMRDPSSRNFIMEGGAMVLADGGVVCIDEFDKMREDDRVAIHEAMEQQTISIAKAGITTTLNSRCSVLAAANSVFGRWDETKGEDNIDFMPTILSRFDMIFIVKDEHNEERDVMLAKHVITLHVSALTQTQAVEGEIDLAKLKKFIAYCRVKCGPRLSAEAAEKLKNRYIIMRSGARQHERDSDRRSSIPITVRQLEAIVRIAEALSKMKLQPFATEADVEEALRLFQVSTLDAALSGTLSGVEGFTSQEDQEMLSRIEKQLKRRFAIGSQVSEHSIIKDFTKQKYPEHAIHKVLQLMLRRGEIQHRMQRKVLYRLK

What was measured:
[1] = tested on: 3×MBT domain of L3MBTL1; experiment: Triple SILAC pull-down, 3xMBT/3xMBTD355N ratio (cytoplasmic, nuclear and chromatin fractions of 293T cells); format: binding, human; details: for 3xMBT/D355N UNC Heavy: experiment with UNC0638 in heavy SILAC media; for 3xMBT/D355N UNC Light: experiment with UNC0638 in light SILAC media;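 for all read-outs here: proteins quantified with MaxQuant, requiring at least two unique peptides and quantification in both label directions, normalized to the mean of proteins from a digested loading control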
[2] = target: T1, G9a and GLP; experiment: Triple SILAC pull-down after UNC0638 treatment of 293T cells, DMSO/UNC0638 ratio of protein captured by 3×MBT; format: cell-based; design: cells were treated for 24 hours with UNC0638 at 2.5 μM or DMSO vehicle control; endogenous in cells; host or cells: HEK 293T; details: for Relative to UNC0638 UNC Heavy: UNC0638 in heavy SILAC media; for Relative to UNC0638 UNC Light: UNC0638 in light SILAC media; for Relative to UNC0638 Average: average of UNC Light and UNC Heavy experiments;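 for all read-outs here: mass spectrometry (Q-Exactive) SILAC quantitation, DMSO/UNC0638 ratio computed after subtracting 3×MBTD355N mutant pull-down background, only proteins with at least twofold 3×MBT over mutant signal considered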
[3] = SILAC ratio 3xMBT vs 3xMBTD355N pull-down, 293T cells, all values in log base 2
[4] = SILAC ratio DMSO relative to UNC0638, pull-down with 3xMBT, all values in log base 2
[5] = SILAC ratio, pull-down 3xMBT vs 3xMBTD355N
[6] = SILAC ratio DMSO/UNC0638 of protein pulled down with 3xMBT

Molecule	3xMBT/D355N UNC Heavy [1, 3] [log base 2]	3xMBT/D355N UNC Light [1, 3] [log base 2]	Relative to UNC0638 UNC Heavy [2, 4] [log base 2]	Relative to UNC0638 UNC Light [2, 4] [log base 2]	Relative to UNC0638 Average ([2]; all values in log base 2) [log base 2]	3xMBT/D355N UNC Heavy [1, 5] [log base 2]	3xMBT/D355N UNC Light [1, 5] [log base 2]	Relative to UNC0638 UNC Heavy [2, 6] [log base 2]	Relative to UNC0638 UNC Light [2, 6] [log base 2]	Relative to UNC0638 Average [2] [log base 2]
B1	2.44	2.49	0.05	0.12	0.09					
B2	2.42	2.85	−0.01	0.18	0.09					
B3	1.71	2.05	0.13	0.07	0.10					
B4						3.31	1.73	3.21	−2.20	0.50
B5	2.23	2.79	0.18	0.03	0.10					
